Data set [1] deals with T1, BirA (biotin protein ligase, Group II) (Bacillus subtilis 168) (UniProt P0CI75).
T1 sequence: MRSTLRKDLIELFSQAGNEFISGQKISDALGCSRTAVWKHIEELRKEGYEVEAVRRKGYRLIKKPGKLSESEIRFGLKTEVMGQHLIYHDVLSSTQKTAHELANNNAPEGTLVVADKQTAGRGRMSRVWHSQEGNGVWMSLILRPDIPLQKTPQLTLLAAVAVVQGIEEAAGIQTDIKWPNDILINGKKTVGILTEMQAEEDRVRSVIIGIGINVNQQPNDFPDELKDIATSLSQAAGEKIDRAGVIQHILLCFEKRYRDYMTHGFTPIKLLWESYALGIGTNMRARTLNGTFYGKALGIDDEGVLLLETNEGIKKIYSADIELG
Kind of data set: EMSA. The following applies: 50 mM Tris-HCl pH 8.0, 1 mM EDTA, 50 mM NaCl, 10% glycerol, 40 nM DNA, 15.6-500 nM BirA, 1 mM ATP, 1 mM MgCl2, 1 uM biotin; room temperature 30 min; 6% gel in ….

Data set [2] deals with the molecule itself. The data set can be described thus: cross-linking; purified BirA 30 µM in 50 mM HEPES pH 7.5, 500 mM NaCl, 0.1 mM TCEP, 5% glycerol; with biotin (0.1 mM) and ATP (0.1 mM), room temperature 30 min; EGS 0.125-0.5 mM, room temperature 30 min; SDS-PAGE on 4-20% gels.

The term stoichiometry N denotes the number of molecules, sites or subunits per partner or assembly.

Turning to “CCTTTCACTGATAACTGAAGAACGTGTAGCGCTTCTCACCTAAATTGTTAACCAATTATATTCAAAGGTTAACAATTAGAATATATTATTCTCTCCTGTTTCTGTCAATAGAAGAAAGGATC (double strand) [B. subtilis bioO (bioWAFDBI operator)]”, the binding result in data set [1] is “binds”. Turning to “CCCTTAGGTTGACATACACAATCATAGAGTAATAAAGAACAAAAAGATTGTCAACATGATTTTAAATTAGGTTAACAAAAAGGAGGCCCATATGTATTTCGGAAAAACAAGACAGTCCGATCAAT (double strand) [yuiG operator]”, the binding result in data set [1] was “binds”. Turning to “GGGGCTTCTCCAAAACGTGTTTTTTGTTGTTAATTCGGTGTAGACTTGTAAACCTAAATCTTTTCAATTTGGTTTACAAGTCGATTATGACAACGGACGATCTTGCCTTTGACCAACGCCATATC (double strand) [E. coli bioO]”, in data set [1], the binding entry is “binds more weakly”.

With “CCAAAAAGTAATCAAATATGGTTATACAATAAATGCAGGTAATTATTATGTCAACTGATTTTTAATTTAAGTTTACATAATGAACGCAAAAAAACCGGCCGTATGGCAGACCGGTTTTTGATGGT (double strand) [yhfU operator]”, in data set [1], the binding entry is given as “binds”. As to “ATTCAAAGGTTAACAATTAGAATATATTATTCTCTCCTGTTTCTGTCAATAGAAGAAAGGATCGATTTATGGCAGTTGGTTAAAAGGAAACAAAAAGACCGTTTTCACACAAAACGGTCTTTTTC (double strand) [B. subtilis bioO half site]”, the binding entry in data set [1] is given as “no binding”. “AACGATCGGGATTTCCATTTTCATCGATTCCAAAATGGCTACCTCCTGGCCCTTTTCGATTTGGTCGCCGGCTTTGACGTGGACTTTCCACAGGTTTCCTGCCATTTGTATGCTAACCGTCATGC (double strand) [non-operator DNA (yngHB/blap internal fragment)]”: the binding entry in data set [1] is “no binding”.

B1: B. subtilis N-terminally hexahistidine-tagged BirA (enzyme, Bacillus subtilis, UniProt P0CI75 1-325, looked up)
chain: MRSTLRKDLIELFSQAGNEFISGQKISDALGCSRTAVWKHIEELRKEGYEVEAVRRKGYRLIKKPGKLSESEIRFGLKTEVMGQHLIYHDVLSSTQKTAHELANNNAPEGTLVVADKQTAGRGRMSRVWHSQEGNGVWMSLILRPDIPLQKTPQLTLLAAVAVVQGIEEAAGIQTDIKWPNDILINGKKTVGILTEMQAEEDRVRSVIIGIGINVNQQPNDFPDELKDIATSLSQAAGEKIDRAGVIQHILLCFEKRYRDYMTHGFTPIKLLWESYALGIGTNMRARTLNGTFYGKALGIDDEGVLLLETNEGIKKIYSADIELG
notes: 325 residues by the names of the constructs (64-325 etc.); no step that removes the tag is described; The vector is pET19b, whose own tag may be longer than six histidines and is followed by a linker (surmise); also called wild type BirA; B. subtilis BirA; source: E. coli BL21 (λ DE3) with pSKH001, purified (Ni NTA)
Turning to B1, the “stoichiometry N” value in data set [2] stood at 2.

B2: B. subtilis N-terminally hexahistidine-tagged Δ2-65 BirA (domain or fragment, Bacillus subtilis, UniProt P0CI75 66-325, looked up)
chain: GKLSESEIRFGLKTEVMGQHLIYHDVLSSTQKTAHELANNNAPEGTLVVADKQTAGRGRMSRVWHSQEGNGVWMSLILRPDIPLQKTPQLTLLAAVAVVQGIEEAAGIQTDIKWPNDILINGKKTVGILTEMQAEEDRVRSVIIGIGINVNQQPNDFPDELKDIATSLSQAAGEKIDRAGVIQHILLCFEKRYRDYMTHGFTPIKLLWESYALGIGTNMRARTLNGTFYGKALGIDDEGVLLLETNEGIKKIYSADIELG
notes: no step that removes the tag is described; Primer SKH047 (BirA 66-325 NdeI F) reads ATGGGAAAACTCAGTGAAAGC, i.e. M-GKLSES; also called BirA 66-325; Δ2-66 BirA (so named in the methods); source: E. coli BL21 (λ DE3) with pSKH020, purified (Ni NTA)
Regarding B2, the “stoichiometry N” value in data set [2] is 2.

Source of the values: paper PMC4016012, “Successful Conversion of the Bacillus subtilis BirA Group II Biotin Protein Ligase into a Group I Ligase” (PLoS ONE, 2014).
